Measurements: patent US20190127480A1 (Regeneron, published 2019)
Where a chain is given by its changes, count along the chain named. Values belong to the binder of their own block, whether it stands above or below them.

Experiments:
[1] = target: T1, Soluble heterodimeric CD3 protein (hCD3-epsilon/hCD3-delta) with either a human Fc tag (hFcΔAdp/hFc) or a … (human, UniProt P07766 23-126; P04234 22-105); test: SPR Biacore 25C antibody-capture
T1 construct: also called hCD3ε/δ; not shown: Fc tag: human (hFcΔAdp/hFc)
T1 sequence (P07766 23-126 limits assumed, stated change not applied, chain 1 of 2): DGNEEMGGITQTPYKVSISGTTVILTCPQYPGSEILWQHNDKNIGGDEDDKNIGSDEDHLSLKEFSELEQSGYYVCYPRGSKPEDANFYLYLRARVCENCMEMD
T1 sequence (P04234 22-105 limits assumed, stated change not applied, chain 2 of 2): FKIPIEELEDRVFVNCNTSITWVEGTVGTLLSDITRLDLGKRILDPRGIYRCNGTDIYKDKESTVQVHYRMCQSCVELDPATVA
Description: (§1) Measurements were conducted on a T200 Biacore™ instrument.
(§2) Soluble heterodimeric CD3 protein (hCD3-epsilon/hCD3-delta; SEQ ID NOs:1652/1653) with either a human Fc tag (hFcΔAdp/hFc; SEQ ID NOs:1683/1684) or a mouse Fc tag (mFcΔAdp/mFc; SEQ ID NOs:1685/1686) was injected over the antibody captured surface and the binding response was recorded. Heterodimeric CD3 protein was purified using the method described in Davis et al. (US2010/0331527).
(§3) Kinetic association (kₐ) and dissociation (kd) rate constants were determined by processing and fitting the data to a 1:1 binding model using Scrubber 2.0 curve fitting software. Binding dissociation equilibrium constants (KD) and dissociative half-lives (t₁₁₂) were calculated from the kinetic rate constants as: KD (M)=kd/kₐ; and t_{1/2} (min)=(ln 2/(60*kd). NT=not tested; NB=no binding observed.

[2] = target: T1, Soluble heterodimeric CD3 protein …; test: SPR Biacore 25C antigen-capture
Description: as §1
(§4) In the antigen-capture format, heterodimeric CD3 protein was captured using a rabbit anti-mouse Fc or mouse anti-human Fc and the respective antibodies were injected over the captured antigen.
as §3

[3] = target: T1, Soluble heterodimeric CD3 protein …; test: SPR Biacore 25C antibody-capture, 1-arm
Description: as §2, §3

[4] = target: T1, Soluble heterodimeric CD3 protein …; test: SPR Biacore 25C antigen-capture, 1-arm
Description: as §4, §3

B1: H1H5786B (antibody, human IgG1, V domains shown)
VH: QVQLVESGAEVKKPGASVKVSCKTSGYTFTGYYMHWIRQAPGQGLEWMGWINPKSGGTNYAQKFQGRVTMTRDTSISTAYMELSRLRSDDMAVYYCARMGDGAVFDFWGQGTLVTVSS
VL: AIQMTQSPSSLSASVGDRVTITCRASQRISSFLNWYQQKPGKAPKLLIYTASNLQNGVPSRFSGSGSGTDFTLTISSLQPEDFATYYCQQSYRTPLTFGGGTKVEIKR
notes: H1H: human IgG1 Fc; divalent
Kd [1]: 85.4 nM | T½ [1]: 11 min | koff [1]: 0.00108 s⁻¹ | kon [1]: 12600 M⁻¹ s⁻¹ | Kd [2]: 0.141 nM | T½ [2]: 27 min | koff [2]: 0.000424 s⁻¹ | kon [2]: 3e+06 M⁻¹ s⁻¹

B2: H1H5795B (antibody, human IgG1, V domains shown)
VH: B1 VH with Q1E, T28S, T30I, M34I, I37M, G57V, K63R, R87K, M91T, Y95F
VL: B1 VL with A1D, M4L, A43V, S65T, E105D
notes: H1H: human IgG1 Fc; divalent
Kd [1]: 33.3 nM | T½ [1]: 20 min | koff [1]: 0.000576 s⁻¹ | kon [1]: 17300 M⁻¹ s⁻¹ | Kd [2]: 0.145 nM | T½ [2]: 50 min | koff [2]: 0.000229 s⁻¹ | kon [2]: 1.58e+06 M⁻¹ s⁻¹

B3: H1H5801B (antibody, human IgG1, V domains shown)
VH: QVQLVQSGGGVVQPGGSLRLSCAASGFTFDDYAMHWVRQAPGKGLEWVSLISGDGGSTYYADSVKGRFTISRDNSKNSLYLQMNSLRTEDTALYYCAKDDSSSSWYYYYYGMDVWGRGTTVTVSS
VL: B1 VL with A1D, F32Y, L46V, Y49S, T50V, N53S, N56S, T85S, R93N
notes: H1H: human IgG1 Fc; divalent
Kd [1]: 246 nM | T½ [1]: 7 min | koff [1]: 0.00162 s⁻¹ | kon [1]: 6570 M⁻¹ s⁻¹ | Kd [2]: 3.38 nM | T½ [2]: 10 min | koff [2]: 0.00112 s⁻¹ | kon [2]: 331000 M⁻¹ s⁻¹

B6: H1H5791B (antibody, human IgG1, V domains shown)
VH: B1 VH with F29L, T30S, I37M, G57V, G66D, T69A, M91T, G109A
VL: B1 VL with A1D, M4L, V104L
notes: H1H: human IgG1 Fc; divalent
Kd [1]: 72.5 nM | T½ [1]: 15 min | koff [1]: 0.00079 s⁻¹ | kon [1]: 10900 M⁻¹ s⁻¹ | Kd [2]: 0.433 nM | T½ [2]: 34 min | koff [2]: 0.00034 s⁻¹ | kon [2]: 786000 M⁻¹ s⁻¹

Results, then the binder that gave them:

Kd [1]: 579 nM | T½ [1]: 1 min | koff [1]: 0.00788 s⁻¹ | kon [1]: 13600 M⁻¹ s⁻¹ | Kd [2]: 7.85 nM | T½ [2]: 2 min | koff [2]: 0.00564 s⁻¹ | kon [2]: 718000 M⁻¹ s⁻¹
B4: H1H5799P (antibody, human IgG1, V domains shown)
VH: B1 VH with E6Q, T24A, T30I, I37V, R72G, M91T, Y94F, V104M, F107Y
VL: DIQMTQSPSSLSASVGDRVTITCRASQRISSYLNWYQQKAGKAPKVLIYTASSLQSGVPSRFSGSGSGTDFTLTISSLQPEDFATYYCQQSYSTPLTFGGGTKVEIK
notes: H1H: human IgG1 Fc; divalent

Kd [1]: 28.3 nM | T½ [1]: 22 min | koff [1]: 0.000517 s⁻¹ | kon [1]: 18200 M⁻¹ s⁻¹ | Kd [2]: 0.254 nM | T½ [2]: 49 min | koff [2]: 0.000236 s⁻¹ | kon [2]: 925000 M⁻¹ s⁻¹
B5: H1H5790B (antibody, human IgG1, V domains shown)
VH: EVQLVESGGGVVQPGRSLRLSCAASGFTFSYYGMHWVRQAPGKGLEWVAVISFDGKNKYYADSVMGRFTISRDNSKNTLYLQMNSLRAEDSAVFFCARSYDILTGYGAGYSYHYGMDVWGQGTTVTVSS
VL: B1 VL
notes: H1H: human IgG1 Fc; divalent

Kd [3]: 41.3 nM | T½ [3]: 26 min | koff [3]: 0.000443 s⁻¹ | kon [3]: 10700 M⁻¹ s⁻¹ | Kd [4]: 2.49 nM | T½ [4]: 25 min | koff [4]: 0.000461 s⁻¹ | kon [4]: 185000 M⁻¹ s⁻¹
B7: H1H7196P (monovalent 1-arm) (antibody, human IgG1, V domains shown)
VH: EVQLVESGGGMVQPGRSLRLSCAASGFPFNDYTMHWVRQVPGRGLEWVSDISWNSGSKGYADSVKGRFIISRDNAKNSLYLQMNSLRVEDTALYYCVKDGSGYGRFHYYAMDVWGQGTTVTVSS
VL: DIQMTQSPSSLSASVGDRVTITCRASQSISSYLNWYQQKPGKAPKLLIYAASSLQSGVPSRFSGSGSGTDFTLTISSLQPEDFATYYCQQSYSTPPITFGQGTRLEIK
notes: Monovalent 1-arm: second Fab removed, only the Fc portion (CH2-CH3) expressed; human IgG1 Fc; tied by numerical identifier; also called H1H7196B

Kd [1]: 44.7 nM | T½ [1]: 30 min | koff [1]: 0.000382 s⁻¹ | kon [1]: 8540 M⁻¹ s⁻¹ | Kd [2]: 0.333 nM | T½ [2]: 73 min | koff [2]: 0.000159 s⁻¹ | kon [2]: 478000 M⁻¹ s⁻¹
B8: H1H5793B (antibody, human IgG1, V domains shown)
VH: QVQLVQSGTEVKKPGASMKVSCKASGYTFTGYYIHWVRQAPGQGLEWMGWINPNSDVTKYAQKFQGRVTLTRDTSISAAYIDLSRLRSDDTAIYYCARMGDGAVFDYWGQGTLVTVSS
VL: DIQLTQSPSSLSASVGDRVTITCRASQRISSYLNWYQQKPGKAPKVLISVASSLQSGVPSRFSGSGFGTDFTLTISSLQPEDSASYYCQQSYNTPLTFGGGTKLEIKR
notes: H1H: human IgG1 Fc; divalent

binding result [3]: no binding
B9: H1xH7221G5 (monovalent 1-arm) (antibody, V domains shown)
VH: EVQLVESGGGLVQPGRSLRLSCAASGFTFDDYSMHWVRQAPGKGLEWVSGISWNSGSIGYADSVKGRFTISRDNAKNSLYLQMNSLRAEDTALYYCAKDGSGYGKFYYYGMDVWGQGTTVTVSS
VL: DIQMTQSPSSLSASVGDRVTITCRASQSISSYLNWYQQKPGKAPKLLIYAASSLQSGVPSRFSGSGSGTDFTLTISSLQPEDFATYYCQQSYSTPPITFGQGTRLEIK
notes: Monovalent 1-arm: second Fab removed, only the Fc portion (CH2-CH3) expressed; prefix H1xH not explained
